Values quoted from earlier work in article PMC6721559.

Biological target: Ubc9 (Homo sapiens) (UniProt P63279)
Sequence of UniProt P63279 (P63279 2-158): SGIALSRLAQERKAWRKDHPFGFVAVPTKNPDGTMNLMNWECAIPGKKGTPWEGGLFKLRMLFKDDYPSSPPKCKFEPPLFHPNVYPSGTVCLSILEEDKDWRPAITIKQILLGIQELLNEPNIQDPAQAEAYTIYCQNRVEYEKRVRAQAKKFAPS

Kd: 0.082 µM
Substance: SUMO (from UniProt P63165)
